Source: the Immune Epitope Database (IEDB)

What was measured:
Details in all cases: source organism: Influenza A virus
HLA-A*26:01 = experiment: IEDB peptide-MHC binding, purified MHC/competitive/fluorescence; ≥ and ≤ were set here for values at or beyond the usual limits of such assays
HLA-A*30:02 = experiment: as above
HLA-A*01:01 = experiment: IEDB peptide-MHC binding, purified MHC/competitive/radioactivity; ≥ and ≤ were set here for values at or beyond the usual limits of such assays
HLA-A*29:02 = experiment: as above
HLA-A*02:02 [1] = experiment: IEDB peptide-MHC binding, purified MHC/competitive/fluorescence; ≥ and ≤ were set here for values at or beyond the usual limits of such assays
HLA-A*02:06 [2] = experiment: as above
HLA-A*02:01 [3] = experiment: IEDB peptide-MHC binding, purified MHC/competitive/radioactivity; ≥ and ≤ were set here for values at or beyond the usual limits of such assays
HLA-A*02:03 = experiment: as above
HLA-B*18:01 [4] = experiment: IEDB peptide-MHC binding, purified MHC/competitive/fluorescence; ≥ and ≤ were set here for values at or beyond the usual limits of such assays
HLA-B*40:01 [5] = experiment: as above
HLA-B*44:02 [6] = experiment: as above
HLA-B*44:03 [7] = experiment: as above
HLA-B*45:01 [8] = experiment: as above
HLA-B*40:02 [9] = experiment: IEDB peptide-MHC binding, purified MHC/competitive/radioactivity; ≥ and ≤ were set here for values at or beyond the usual limits of such assays
HLA-B*40:02 [10] = experiment: IEDB peptide-MHC binding, purified MHC/competitive/fluorescence; ≥ and ≤ were set here for values at or beyond the usual limits of such assays
HLA-B*18:01 [11] = experiment: IEDB peptide-MHC binding, purified MHC/competitive/radioactivity; ≥ and ≤ were set here for values at or beyond the usual limits of such assays
HLA-B*44:02 [12] = experiment: as above
HLA-A*02:02 [13] = experiment: as above
HLA-A*02:06 [14] = experiment: as above
HLA-A*03:01 = experiment: as above
HLA-A*31:01 = experiment: as above
HLA-A*23:01 = experiment: as above
HLA-A*24:02 = experiment: as above
HLA-A*02:01 [15] = experiment: IEDB peptide-MHC binding, purified MHC/competitive/fluorescence; ≥ and ≤ were set here for values at or beyond the usual limits of such assays
HLA-A*68:02 [16] = experiment: as above
HLA-A*68:02 [17] = experiment: IEDB peptide-MHC binding, purified MHC/competitive/radioactivity; ≥ and ≤ were set here for values at or beyond the usual limits of such assays
HLA-B*45:01 [18] = experiment: as above
HLA-B*40:01 [19] = experiment: as above
HLA-B*44:03 [20] = experiment: as above
HLA-A*33:01 = experiment: IEDB peptide-MHC binding, purified MHC/competitive/fluorescence; ≥ and ≤ were set here for values at or beyond the usual limits of such assays

How did the IC50 (HLA-A*26:01) turn out when ALASCMGLIY was run?
Its IC50 is 2180 nM.

What about the IC50 (HLA-A*30:02) of the same sequence?
Its IC50 is 2520 nM.

What about the IC50 (HLA-A*01:01) of the same sequence?
The IC50 was 998 nM.

And the IC50 (HLA-A*29:02)?
The IC50 was 12 nM.

With ALQLLLEV as the sequence, how does the IC50 (HLA-A*02:02 [1]) read?
Its IC50 is 1440 nM.

And the IC50 (HLA-A*02:06 [2])?
The IC50 was 2200 nM.

And the IC50 (HLA-A*02:01 [3])?
The IC50 was 662 nM.

What about the IC50 (HLA-A*02:03) of the same sequence?
Its IC50 is 256 nM.

For FESKSMKL, which IC50 (HLA-B*18:01 [4]) is on record?
Its IC50 is 2500 nM.

What about the IC50 (HLA-B*40:01 [5]) of the same sequence?
Its IC50 is 1230 nM.

What about the IC50 (HLA-B*44:02 [6]) of the same sequence?
Its IC50 is 23600 nM.

What about the IC50 (HLA-B*44:03 [7]) of the same sequence?
Its IC50 is 66400 nM.

What about the IC50 (HLA-B*45:01 [8]) of the same sequence?
Its IC50 is 53700 nM.

What about the IC50 (HLA-B*40:02 [9]) of the same sequence?
The IC50 was 212 nM.

FEDLRVSSF was tested. Which IC50 (HLA-B*40:01 [5]) did it give?
Its IC50 is 13000 nM.

What about the IC50 (HLA-B*40:02 [10]) of the same sequence?
The IC50 was 1320 nM.

What about the IC50 (HLA-B*44:03 [7]) of the same sequence?
Its IC50 is 8990 nM.

What about the IC50 (HLA-B*18:01 [11]) of the same sequence?
Its IC50 is 59 nM.

What about the IC50 (HLA-B*44:02 [12]) of the same sequence?
The IC50 was 396 nM.

For ILGFVFTL, which IC50 (HLA-A*02:02 [13]) is on record?
The IC50 was 2.6 nM.

And the IC50 (HLA-A*02:03)?
Its IC50 is 11 nM.

What about the IC50 (HLA-A*02:06 [14]) of the same sequence?
The IC50 was 319 nM.

KTRPILSPLTK was tested. Which IC50 (HLA-A*03:01) did it give?
Its IC50 is 96 nM.

What about the IC50 (HLA-A*31:01) of the same sequence?
Its IC50 is 70 nM.

With LYRKLKREITF as the sequence, how does the IC50 (HLA-A*23:01) read?
The IC50 was 195 nM.

What about the IC50 (HLA-A*24:02) of the same sequence?
The IC50 was 206 nM.

Which results are given for ILSPLTKGIL?
IC50 (HLA-A*02:01 [15]): 10500 nM; IC50 (HLA-A*02:06 [2]): 26000 nM; IC50 (HLA-A*68:02 [16]): 13300 nM; IC50 (HLA-A*02:02 [13]): 159 nM; IC50 (HLA-A*02:03): 129 nM

FSMELPSFGV was tested. Which IC50 (HLA-A*02:01 [3]) did it give?
The IC50 was 9.5 nM.

Which results are given for ITFMQALQLL?
IC50 (HLA-A*02:06 [2]): 8180 nM; IC50 (HLA-A*02:02 [13]): 125 nM; IC50 (HLA-A*02:03): 856 nM; IC50 (HLA-A*68:02 [17]): 759 nM

How did the IC50 (HLA-A*02:02 [1]) turn out when GLIYNRMGA was run?
Its IC50 is 6560 nM.

And the IC50 (HLA-A*02:06 [2])?
Its IC50 is 25600 nM.

And the IC50 (HLA-A*02:03)?
The IC50 was 273 nM.

Which results are given for AEIMKICST?
IC50 (HLA-B*18:01 [4]): 28200 nM; IC50 (HLA-B*40:01 [5]): 34200 nM; IC50 (HLA-B*44:02 [6]): 5120 nM; IC50 (HLA-B*44:03 [7]): 11700 nM; IC50 (HLA-B*40:02 [9]): 13 nM; IC50 (HLA-B*45:01 [18]): 139 nM

With FNMLSTVLGV as the sequence, how does the IC50 (HLA-A*02:01 [3]) read?
The IC50 was 15 nM.

How did the IC50 (HLA-B*18:01 [4]) turn out when CELTDSSWI was run?
The IC50 was 56800 nM.

And the IC50 (HLA-B*40:02 [10])?
The IC50 was 1410 nM.

What about the IC50 (HLA-B*40:01 [19]) of the same sequence?
Its IC50 is 888 nM.

What about the IC50 (HLA-B*44:02 [12]) of the same sequence?
Its IC50 is 35 nM.

What about the IC50 (HLA-B*44:03 [20]) of the same sequence?
Its IC50 is 163 nM.

What about the IC50 (HLA-B*45:01 [18]) of the same sequence?
Its IC50 is 139 nM.

Which results are given for YERMCNILKG?
IC50 (HLA-B*40:01 [5]): 2220 nM; IC50 (HLA-B*44:02 [6]): 1860 nM; IC50 (HLA-B*44:03 [7]): 3000 nM; IC50 (HLA-B*45:01 [8]): 19800 nM; IC50 (HLA-B*18:01 [11]): 711 nM; IC50 (HLA-B*40:02 [9]): 143 nM

For RMVLASTTAK, which IC50 (HLA-A*33:01) is on record?
The IC50 was 5880 nM.

For QLVWMACHSAA, which IC50 (HLA-A*02:02 [1]) is on record?
The IC50 was 2740 nM.

What about the IC50 (HLA-A*68:02 [16]) of the same sequence?
The IC50 was 21500 nM.

What about the IC50 (HLA-A*02:03) of the same sequence?
The IC50 was 354 nM.
